B1: purified anti-SQSTM1 sdAb clone #2 (VHH)
VHH: QVQLVESGGGSVQAGGSLRLSCTASGGSEYSYSTFSLGWFRQAPGQEREAVAAIASMGGLTYYADSVKGRFTISRDNAKNTVTLQMNNLKPEDTAIYYCAARAGVCGVVGSFSMYTIGNWVYWGQGTQVTVSS
B2: anti-SQSTM1 sdAb #6 (Flag-tagged, sdAb library) (VHH)
VHH: QVQLVESGGGSVQAGGSLRLSCTASGGSEYSYSTFSLGWFRQAPGQEREAVAAIASMGGLTYYADSVKGRFTISRDNAKNTVTLQMNNLKPEDTAIYYCAALLVIDSSVIARLDGRGRSDRLWGQGTQVTVSS
notes: 21-aa CDR3 in place of the CDR3 of cAbBCII10; source: HEK293T, transfected (sdAb library in pcDNA3.1), in fixed cells; not shown: 3x Flag, C-terminal, kept
B3: anti-SQSTM1 sdAb #16 (Flag-tagged, sdAb library) (VHH)
VHH: QVQLVESGGGSVQAGGSLRLSCTASGGSEYSYSTFSLGWFRQAPGQEREAVAAIASMGGLTYYADSVKGRFTISRDNAKNTVTLQMNNLKPEDTAIYYCAANMAIRVRWVAMFTCGPIGGVGWGQGTQVTVSS
notes: as for B2
B4: anti-SQSTM1 sdAb #20 (Flag-tagged, sdAb library) (VHH)
VHH: QVQLVESGGGSVQAGGSLRLSCTASGGSEYSYSTFSLGWFRQAPGQEREAVAAIASMGGLTYYADSVKGRFTISRDNAKNTVTLQMNNLKPEDTAIYYCAAPGHGRPWRAATFPVDEGGGSAWGQGTQVTVSS
notes: as for B2
B5: anti-SQSTM1 sdAb #13 (Flag-tagged, sdAb library) (VHH)
VHH: QVQLVESGGGSVQAGGSLRLSCTASGGSEYSYSTFSLGWFRQAPGQEREAVAAIASMGGLTYYADSVKGRFTISRDNAKNTVTLQMNNLKPEDTAIYYCAAREPFARYLRKESYPLFRMYSFWGQGTQVTVSS
notes: as for B2
B6: anti-SQSTM1 sdAb #10 (Flag-tagged, sdAb library) (VHH)
VHH: QVQLVESGGGSVQAGGSLRLSCTASGGSEYSYSTFSLGWFRQAPGQEREAVAAIASMGGLTYYADSVKGRFTISRDNAKNTVTLQMNNLKPEDTAIYYCAAVLHVLSWDRCEYDPAHDLRTAWGQGTQVTVSS
notes: as for B2
B7: anti-SQSTM1 sdAb #2 (Flag-tagged, sdAb library) (VHH)
VHH: QVQLVESGGGSVQAGGSLRLSCTASGGSEYSYSTFSLGWFRQAPGQEREAVAAIASMGGLTYYADSVKGRFTISRDNAKNTVTLQMNNLKPEDTAIYYCAARAGVCGVVGSFSMYTIGNWVYWGQGTQVTVSS
notes: 21-aa CDR3 in place of the CDR3 of cAbBCII10; also called clone #2; source: HEK293T, transfected (sdAb library in pcDNA3.1), in fixed cells; not shown: 3x Flag, C-terminal, kept
B8: anti-SQSTM1 sdAb #19 (Flag-tagged, sdAb library) (VHH)
VHH: QVQLVESGGGSVQAGGSLRLSCTASGGSEYSYSTFSLGWFRQAPGQEREAVAAIASMGGLTYYADSVKGRFTISRDNAKNTVTLQMNNLKPEDTAIYYCAARQAPFGSRCSISSSPKGRYPSWGQGTQVTVSS
notes: as for B2
B9: anti-SQSTM1 sdAb #15 (Flag-tagged, sdAb library) (VHH)
VHH: QVQLVESGGGSVQAGGSLRLSCTASGGSEYSYSTFSLGWFRQAPGQEREAVAAIASMGGLTYYADSVKGRFTISRDNAKNTVTLQMNNLKPEDTAIYYCAALRWSWFPSGSTANLSLGIGCTWGQGTQVTVSS
notes: as for B2
B10: anti-SQSTM1 sdAb #11 (Flag-tagged, sdAb library) (VHH)
VHH: QVQLVESGGGSVQAGGSLRLSCTASGGSEYSYSTFSLGWFRQAPGQEREAVAAIASMGGLTYYADSVKGRFTISRDNAKNTVTLQMNNLKPEDTAIYYCAAARAHFASLCDCQGNRITLLCDWGQGTQVTVSS
notes: as for B2
B11: anti-SQSTM1 sdAb #4 (Flag-tagged, sdAb library) (VHH)
VHH: QVQLVESGGGSVQAGGSLRLSCTASGGSEYSYSTFSLGWFRQAPGQEREAVAAIASMGGLTYYADSVKGRFTISRDNAKNTVTLQMNNLKPEDTAIYYCAAAYGNDVQSVAFKYVVGRGYQLWGQGTQVTVSS
notes: as for B2
B12: anti-SQSTM1 sdAb #5 (Flag-tagged, sdAb library) (VHH)
VHH: QVQLVESGGGSVQAGGSLRLSCTASGGSEYSYSTFSLGWFRQAPGQEREAVAAIASMGGLTYYADSVKGRFTISRDNAKNTVTLQMNNLKPEDTAIYYCAAYDRVGGGHVLIACYSDDLCMGWGQGTQVTVSS
notes: as for B2
B13: anti-SQSTM1 sdAb #24 (Flag-tagged, sdAb library) (VHH)
VHH: QVQLVESGGGSVQAGGSLRLSCTASGGSEYSYSTFSLGWFRQAPGQEREAVAAIASMGGLTYYADSVKGRFTISRDNAKNTVTLQMNNLKPEDTAIYYCAAVRTPVILRCFQSGIFYLVGEVWGQGTQVTVSS
notes: as for B2
B14: anti-SQSTM1 sdAb #22 (Flag-tagged, sdAb library) (VHH)
VHH: QVQLVESGGGSVQAGGSLRLSCTASGGSEYSYSTFSLGWFRQAPGQEREAVAAIASMGGLTYYADSVKGRFTISRDNAKNTVTLQMNNLKPEDTAIYYCAAACELDAVRLWPDFVRPAVFSIWGQGTQVTVSS
notes: as for B2
B15: anti-SQSTM1 sdAb #14 (Flag-tagged, sdAb library) (VHH)
VHH: QVQLVESGGGSVQAGGSLRLSCTASGGSEYSYSTFSLGWFRQAPGQEREAVAAIASMGGLTYYADSVKGRFTISRDNAKNTVTLQMNNLKPEDTAIYYCAAGGNTVKVSNIFEVSSSVRVRLWGQGTQVTVSS
notes: as for B2
B16: anti-SQSTM1 sdAb #18 (Flag-tagged, sdAb library) (VHH)
VHH: QVQLVESGGGSVQAGGSLRLSCTASGGSEYSYSTFSLGWFRQAPGQEREAVAAIASMGGLTYYADSVKGRFTISRDNAKNTVTLQMNNLKPEDTAIYYCAAGIGYAGDCRAHTIATRRFSVGWGQGTQVTVSS
notes: as for B2
B17: anti-SQSTM1 sdAb #9 (Flag-tagged, sdAb library) (VHH)
VHH: QVQLVESGGGSVQAGGSLRLSCTASGGSEYSYSTFSLGWFRQAPGQEREAVAAIASMGGLTYYADSVKGRFTISRDNAKNTVTLQMNNLKPEDTAIYYCAADRGCHSTLGSRISFFKGCIIGWGQGTQVTVSS
notes: as for B2
B18: anti-SQSTM1 sdAb #25 (Flag-tagged, sdAb library) (VHH)
VHH: QVQLVESGGGSVQAGGSLRLSCTASGGSEYSYSTFSLGWFRQAPGQEREAVAAIASMGGLTYYADSVKGRFTISRDNAKNTVTLQMNNLKPEDTAIYYCAAPGDGQEVIFAFVQRSTRAWPVWGQGTQVTVSS
notes: as for B2
B19: anti-SQSTM1 sdAb #7 (Flag-tagged, sdAb library) (VHH)
VHH: QVQLVESGGGSVQAGGSLRLSCTASGGSEYSYSTFSLGWFRQAPGQEREAVAAIASMGGLTYYADSVKGRFTISRDNAKNTVTLQMNNLKPEDTAIYYCAAAYIAKRPCCDCREVQWGSRTCWGQGTQVTVSS
notes: as for B2
B20: anti-SQSTM1 sdAb #27 (Flag-tagged, sdAb library) (VHH)
VHH: QVQLVESGGGSVQAGGSLRLSCTASGGSEYSYSTFSLGWFRQAPGQEREAVAAIASMGGLTYYADSVKGRFTISRDNAKNTVTLQMNNLKPEDTAIYYCAAIIAELCSGLPCTSFLRTPCPVWGQGTQVTVSS
notes: as for B2
B21: anti-SQSTM1 sdAb #26 (Flag-tagged, sdAb library) (VHH)
VHH: QVQLVESGGGSVQAGGSLRLSCTASGGSEYSYSTFSLGWFRQAPGQEREAVAAIASMGGLTYYADSVKGRFTISRDNAKNTVTLQMNNLKPEDTAIYYCAAFPSRLKCTRGCGCRTFNFPALWGQGTQVTVSS
notes: as for B2
B22: anti-SQSTM1 sdAb #23 (Flag-tagged, sdAb library) (VHH)
VHH: QVQLVESGGGSVQAGGSLRLSCTASGGSEYSYSTFSLGWFRQAPGQEREAVAAIASMGGLTYYADSVKGRFTISRDNAKNTVTLQMNNLKPEDTAIYYCAARRGFVRHTKIKLLDYALTEVRWGQGTQVTVSS
notes: as for B2
B23: anti-SQSTM1 sdAb #8 (Flag-tagged, sdAb library) (VHH)
VHH: QVQLVESGGGSVQAGGSLRLSCTASGGSEYSYSTFSLGWFRQAPGQEREAVAAIASMGGLTYYADSVKGRFTISRDNAKNTVTLQMNNLKPEDTAIYYCAAARVFMPCTPSHIIGAMCTLACWGQGTQVTVSS
notes: as for B2
B24: anti-SQSTM1 sdAb #21 (Flag-tagged, sdAb library) (VHH)
VHH: QVQLVESGGGSVQAGGSLRLSCTASGGSEYSYSTFSLGWFRQAPGQEREAVAAIASMGGLTYYADSVKGRFTISRDNAKNTVTLQMNNLKPEDTAIYYCAADLWAPLMVCSGGLTQMLSNSDWGQGTQVTVSS
notes: as for B2
B25: anti-SQSTM1 sdAb #3 (Flag-tagged, sdAb library) (VHH)
VHH: QVQLVESGGGSVQAGGSLRLSCTASGGSEYSYSTFSLGWFRQAPGQEREAVAAIASMGGLTYYADSVKGRFTISRDNAKNTVTLQMNNLKPEDTAIYYCAARVRTSPRSAVADGSAYRSESAWGQGTQVTVSS
notes: as for B2
B26: anti-SQSTM1 sdAb #12 (Flag-tagged, sdAb library) (VHH)
VHH: QVQLVESGGGSVQAGGSLRLSCTASGGSEYSYSTFSLGWFRQAPGQEREAVAAIASMGGLTYYADSVKGRFTISRDNAKNTVTLQMNNLKPEDTAIYYCAADQVRDHSWCNLFRTLRVCVLIWGQGTQVTVSS
notes: as for B2
B27: anti-SQSTM1 sdAb #17 (Flag-tagged, sdAb library) (VHH)
VHH: QVQLVESGGGSVQAGGSLRLSCTASGGSEYSYSTFSLGWFRQAPGQEREAVAAIASMGGLTYYADSVKGRFTISRDNAKNTVTLQMNNLKPEDTAIYYCAAAVESCDGFRTGRTVPYREVTYWGQGTQVTVSS
notes: as for B2
B28: purified anti-SQSTM1 sdAb clone #1, C-terminal ETA-fused and Flag-tagged (VHH)
VHH: QVQLVESGGGSVQAGGSLRLSCTASGGSEYSYSTFSLGWFRQAPGQEREAVAAIASMGGLTYYADSVKGRFTISRDNAKNTVTLQMNNLKPEDTAIYYCAAEGLVYWTTKKSFGGCLLHDWSWGQGTQVTVSS
notes: also called anti-SQSTM1 sdAb #1; ETA-tagged anti-SQSTM1 sdAb

These binders were tested against T1, Sqstm1 (endogenous, LLC1 cells) (Mus musculus (Mouse)., UniProt Q64337) (assay: far-Western, overlay or dot blot). Settings: one partner purified.
T1 construct: mouse Sqstm1, endogenous in Lewis lung carcinoma (LLC1) cells; also called denatured Sqstm1; source: endogenous, LLC1 cells (lysate for Western blot; fixed cells for staining)
B1: binds.

Each binder was assayed against T2, HA-tagged SQSTM1 (Homo sapiens (Human)., UniProt Q13501) (assay: proximity ligation; pooled screen (isPLA-seq): Flag-tagged sdAb library co-transfected with HA-tagged SQSTM1 into HEK293T cells, fixed after 48 h, isPLA with anti-HA and anti-Flag antibodies, positive cells sorted by FACS, three rounds, CDR3 sequenced). Settings: partners not purified.
T2 construct: autophagy receptor SQSTM1, full length; the printed limits 1-440 fit the human protein; also called HA-tagged bait; full length; source: HEK293T, transfected, in fixed cells (screen)
B2: binds.
B3: binds.
B4: binds.
B5: binds.
B6: binds.
B7: binds.
B8: binds.
B9: binds.
B10: binds.
B11: binds.
B12: binds.
B13: binds.
B14: binds.
B15: binds.
B16: binds.
B17: binds.
B18: binds.
B19: binds.
B20: binds.
B21: binds.
B22: binds.
B23: binds.
B24: binds.
B25: binds.
B26: binds.
B27: binds.

These binders were tested against GST-SQSTM1, 221–440 aa (Homo sapiens (Human)., UniProt Q13501) (assay: ITC). Settings: both partners purified.
B28 was tested, and the Kd was 8.8 ± 1.39 µM.

Reference: PMC8548206, “Single-domain antibody screening by isPLA-seq” (Life Science Alliance, 2021)
